In patent US20180188195A1, “SYSTEMS AND METHODS FOR MULTIPLEXED HEMOSTASIS TEST PANELS” (T2 Biosystems, Inc., priority 2015, published 2018):

What was measured:
Type in all cases: cell-based, human
[1] = tested on: re-calcified citrated whole blood; assay: T2MR fibrinolysis of thrombin-clotted re-calcified citrated blood after tPA addition
Protocol: In one embodiment, blood clotting was initiated by addition of 2 μL of a 0.2 M CaCl2 solution and 2 μL of thrombin (Sigma-Aldrich, St. Louis, Mo., final concentration 0.1-3.0 U/ml) to 34 μL of blood in a 200 μL PCR tube (Eppendorf, Hauppauge, N.Y.). All components were pre-warmed for 1 min at 37° C. before mixing. Samples were mixed by three aspiration and dispersion cycles using a pipette, then put into the T2MR reader for measurement. Typical run length was 30 min with a 10 sec sampling rate. For some experiments, data collection time was extended to 1 hr.
To establish T2MR signatures for fibrinolysis, tissue plasminogen activator (tPA, Alteplase, Genentech, South San Francisco, Calif.) was added to samples clotted by thrombin. Blood clotting was initiated as described above, and the sample was incubated for […] to allow for complete clot contraction. Then, 0.5-1 μM tPA was added to clotted and contracted samples. Care was taken not to disturb clots, which were usually attached to the tube wall. The pipette tip was carefully placed into the visible serum layer on the tube side opposite to the contracted clot, and 3 μL of tPA solution was added with a single dispensing of the pipettor. The tPA solutions were made from a stock solution prepared according to manufacturer instructions using 0.15 M sodium chloride, pH 7.4.
In one embodiment, the dependencies of the T2MR signals during clotting of re-calcified citrated blood samples from healthy donors initiated by adding 3 U/ml thrombin was measured. Thrombin activates platelets and cleaves fibrinogen to form a three-dimensional fibrin network stabilized by factor XIIIa. Addition of thrombin led to rapid formation of a gelatinous meshwork that filled the sample volume accompanied by a small, rapid decrease in the T2MR signal over tens of seconds due to the sample transitioning from a liquid to gel state. In the initial gel state, only one relaxation rate was observed (FIG. 2, part a), reflecting uniform distribution of erythrocytes and other blood components. Approximately four minutes after thrombin addition, the T2MR signal split into two peaks representing distinct water populations in slow exchange with each other. […]
We then assessed the sensitivity of the T2MR platform to fibrinolysis by adding tissue-type plasminogen activator (tPA) to the clotted samples 30 minutes after thrombin.
The compartment generating the signal in FIG. 2, part b, at 300 ms that dropped to 200 ms was assessed by testing two conditions: (1) re-calcified citrated whole blood activated with thrombin to form a contracted clot and (2) re-calcified citrated whole blood activated with thrombin followed by addition of tPA. After incubation, samples were analyzed before and after mixing with a pipette to re-suspend unbound erythrocytes. […]

citrated whole blood [2] = assay: T2In platelet activity and fibrinolysis measurement with tPA or aprotinin; settings: ellagic acid with CaCl2; tPA 0, 2 or 4 nM or aprotinin control; 65 min
Protocol: The T2Ex or the T2In protocols were also used with the addition of aprotinin (T2Ex-A and T2In-A) respectively. For the intrinsic pathway measurement (T2In), intrinsic activator solution was prepared by mixing ellagic acid stock and CaCl2. For the intrinsic pathway measurement that includes aprotinin (T2In-A), add 41.7 μL of a 1 mg/mL stock of aprotinin to 1 mL intrinsic activator solution. 36.7 μL citrated whole blood that had been warmed to approximately 37° C. for three minutes was added and mixed. 5 μL of intrinsic activator solution with aprotinin that had been warmed to approximately 37° C. for one minute was added. The sample was mixed and read in the T2reader. The clotting time measurement was obtained after 5 minutes and then the platelet activity and fibrinolysis measurements were obtained over the following 60 minutes. In a separate assay the effects of the amounts of activator were tested.
Platelet activity and fibrinolysis measurements for the 3 donor samples in the T2In assay are shown in FIG. 15a-15b. tPA levels of 0 nM, 2 nM or 4 nM were added to citrated whole blood. Blood samples (36.7 μL) were activated by addition of 5 μL ellagic acid solution with CaCl2. T2MR data was collected for 65 min. The addition of tPA cleaves the fibrin mesh of the clot and results in clot dissolution over time. This is detected by T2MR by the change in T2 value of the serum peak (third phase). […]

citrated whole blood [3] = assay: T2In T2MR clotting time, intrinsic pathway activator (ellagic acid); settings: T2In, 3 donors, different tPA concentrations, with or without aprotinin
Text: In another embodiment a coagulopathy panel is used with an intrinsic activator such as ellagic acid. The common range of clotting time is often between 100 and 120 seconds for normal blood. However, it can be 22-30 seconds, 30-44 seconds, 44-60 seconds, 60-80 seconds, 80-100 seconds, up to 2 times to 4 times the range of normal T2MR clotting times for the extrinsic activator. The abnormal clotting time ranges are above or below the normal range. The total range easily measured is 8-300 seconds though a measurement up to or beyond 1000 seconds could be performed with modified acquisition. If aprotinin is added in addition to intrinsic activator, clotting times can often be from 110.9-151.0 seconds in normal blood.
The general intrinsic activator protocol is as follows (T2In panel): an intrinsic activator solution was prepared by mixing tissue factor reagent with CaCl2. To 36.7 μL of citrated whole blood (warmed to approximately 37° C. for 3 minutes and mixed) was added 5 μL of the intrinsic activator solution (also been warmed to approximately 37° C. for one minute). The resulting solution was mixed and subjected to T2 measurements for 50 minutes. […] The T2MR of the sample was measured for 30 minutes.
The T2Ex or the T2In protocols were also used with the addition of aprotinin (T2Ex-A and T2In-A) respectively. […] The sample was mixed and read in the T2reader. […]

citrated whole blood [4] = assay: T2In intrinsic assay for platelet activity, ReoPro titration
Protocol: Citrated whole blood from normal donors was spiked with varying concentrations of the platelet inhibitor ReoPro (Abcixirnab). 5 μL of ellagic acid solution with CaCl2 was used to activate 36.7 μL of blood with or without ReoPro inhibition. T2MR data was collected for 35 minutes. Addition of platelet inhibitor had no effect on T2MR measured clot time or % deltaT2. […] There was some donor to donor differences in responsiveness to ReoPro.

citrated blood [5] = assay: Thromboelastography maximum amplitude (TEG MA) on the same abciximab-treated samples; settings: abciximab 4 or 8 μg/ml added ex vivo; 3 healthy donors
Protocol: (§1) The DiffT2 value was calculated by taking the difference between the upper and middle T2 values in the T2MR signature at a time point 13 minutes after activation. Data are shown here using samples from 3 healthy donors where clot strength was adjusted by ex vivo addition of abciximab (ReoPro) at a level of 0, 4, or 8 μg/ml prior to measurement. All samples containing abciximab were at DiffT2 values of <100 ms or TEG MA values less than 40.
(§2) A 0.5 mg/ml solution of abciximab was prepared by diluting the stock 10 mg/5 ml solution by 1:4 in saline. The abciximab-treated blood samples were incubated for at least 5 min prior to clotting. Clotting was initiated by adding 2 μL 0.2 M CaCl2 and 2 μL TEG kaolin to 34 μL of abciximab-treated blood sample. To compare the T2MR signal to TEG MA, a DiffT2 parameter was calculated by taking the difference in T2 between the upper and middle peaks at a time point 13 min after adding calcium and kaolin. The TEG MA values were measured on the same samples following manufacturer instructions.
(§3) For comparison between T2MR and TEG, calcium and kaolin activation of citrated blood was used and normal donor samples were treated with various amounts of abciximab, an inhibitor of the platelet glycoprotein αIIbβ3 receptor that binds fibrin and is essential for clot contraction.

citrated blood [6] = assay: T2MR clot strength (DiffT2), calcium and kaolin activation of abciximab-treated citrated blood; settings: abciximab 4 or 8 μg/ml added ex vivo; 13 minutes after activation; 3 healthy donors
Protocol: as §1, §2, §3

[7] = tPA added 30 minutes after thrombin
[8] = ellagic acid with CaCl2, varying ReoPro concentrations

| Molecule | 200-300 ms signal after mixing ([1]; clotted with thrombin then lysed with tPA, mixed with a pipette) | T2 value of the upper peak after tPA addition [1, 7] | third peak at ~100 ms after tPA addition [1, 7] | T2 value of the middle peak after tPA addition ([1]; tPA added 30 minutes after thrombin, decreased from 250) [ms] | change in T2 value of the serum peak (third phase) (citrated whole blood [2]) | clotting time curves (% deltaT2) (citrated whole blood [3]) | effect on % deltaT2 (citrated whole blood [4]; [8]) | effect on T2MR measured clot time (citrated whole blood [4]; [8]) | platelet activity measurement (FIG. 27) (citrated whole blood [4]; intrinsic activator, 5 μg/mL and 10 μg/mL ReoPro) | TEG MA (citrated blood [5]) | DiffT2 (citrated blood [6]) [ms] |
| --- | --- | --- | --- | --- | --- | --- | --- | --- | --- | --- | --- |
| tPA: tissue plasminogen activator (tPA, Alteplase, Genentech), inducer of fibrinolysis (protein, UniProt P00750 36-562, looked up, alteplase) Tissue-type plasminogen …: SYQVICRDEKTQMIYQQHQSWLRPVLRSNRVEYCWCNSGRAQCHSVPVKSCSEPRCFNGGTCQQALYFSDFVCQCPEGFAGKCCEIDTRATCYEDQGISYRGTWSTAESGAECTNWNSSALAQKPYSGRRPDAIRLGLGNHNYCRNPDRDSKPWCYVFKAGKYSSEFCSTPACSEGNSDCYFGNGSAYRGTHSLTESGASCLPWNSMILIGKVYTAQNPSAQALGLGKHNYCRNPDGDAKPWCHVLKNRRLTWEYCDVPSCSTCGLRQYSQPQFRIKGGLFADIASHPWQAAIFAKHRRSPGERFLCGGILISSCWILSAAHCFQERFPPHHLTVILGRTYRVVPGEEEQKFEVEKYIVHKEFDDDTYDNDIALLQLKSDSSRCAQESSVVRTVCLPPADLQLPDWTECELSGYGKHEALSPFYSERLKEAHVRLYPSSRCTSQHLLNRTVTDNMLCAGDTRSGGPQANLHDACQGDSGGPLVCLNDGRMTLVGIISWGLGCGQKDVPGVYTKVTNYLDWIRDNMRP | disappeared altogether | decreased rapidly | persisted | 175 | larger change | appear to overlay |  |  |  |  |  |
| abciximab (antibody, chains of the INN, looked up, V domains shown, Fab) VH: EVQLQQSGTVLARPGASVKMSCEASGYTFTNYWMHWVKQRPGQGLEWIGAIYPGNSDTSYIQKFKGKAKLTAVTSTTSVYMELSSLTNEDSAVYYCTLYDGYYVFAYWGQGTLVTVSA VL: EIVLTQSPVTLSVTPGDSVSLSCRASRDISNNLHWFQQTSHESPRLLIKYASQSMSGIPSRFSGSGSGTDFTLSINSVETEDFGMYFCQQTNSWPYTFGGGTKLEIK |  |  |  |  |  |  | no effect | no effect | inhibition of platelet activity | less than 40 | < 100 |
